Data reported in publication PMC11733250.

Biological target: T1, FKBP51, Q13451
T1 chain: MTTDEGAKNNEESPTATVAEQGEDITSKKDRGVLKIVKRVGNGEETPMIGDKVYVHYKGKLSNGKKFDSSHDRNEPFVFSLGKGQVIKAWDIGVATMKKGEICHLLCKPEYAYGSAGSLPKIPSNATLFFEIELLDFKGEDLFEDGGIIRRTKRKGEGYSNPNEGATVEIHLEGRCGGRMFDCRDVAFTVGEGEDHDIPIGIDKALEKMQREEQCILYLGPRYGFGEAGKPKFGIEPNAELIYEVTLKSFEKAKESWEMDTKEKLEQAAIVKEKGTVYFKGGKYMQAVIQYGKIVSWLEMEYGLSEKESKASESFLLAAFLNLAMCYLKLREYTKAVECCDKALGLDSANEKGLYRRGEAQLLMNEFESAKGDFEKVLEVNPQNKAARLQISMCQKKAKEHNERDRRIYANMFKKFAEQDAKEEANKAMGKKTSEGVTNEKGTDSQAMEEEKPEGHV
Assay: ITC; 50 µM FKBP51 in the cell titrated with 750 µM p23; 25 °C; 25 mM HEPES, 10 mM KCl, 5 mM MgCl2, 1 mM DTT, pH 7.2; one set of binding sites
Conditions: remark: other sources report otherwise

B1: p23 wild-type (human co-chaperone p23, 160 amino acids), Q15185 1-160 (natural protein)
chain: MQPASAKWYDRRDYVFIEFCVEDSKDVNVNFEKSKLTFSCLGGSDNFKHLNEIDLFHCIDPNDSKHKRTDRSILCCLRKGESGQSWPRLTKERAKLNWLSVDFNNWKDWEDDSDEDMSNFDRFSEMMNNMGGDEDVDLPEVDGADDDSQDSDDEKMPDLE
- Kd: 67 µM
